The values below come from PMC7963221.

Among the targets are RaTG13 RBD; GD-Pangolin RBD; Civet 007-2004 RBD; A021 RBD; WIV1 RBD; CS24 RBD; LYRa11 RBD; SHC014 RBD; Frankfurt 1 RBD; Rs4231 RBD.
Common to all, as to assay: FACS
Background: In flow cytometry, cells or beads pass a laser one at a time.

Consider CB6/LY-CoV16, for which the Kd in the assay with RaTG13 RBD was found to be 3.6 nM; with GD-Pangolin RBD, 2.15 nM.

In the assay with GD-Pangolin RBD, LY-CoV555 showed a Kd of 1.3 nM.

Consider S309, for which the Kd in the assay with Civet 007-2004 RBD was 3.75 nM; with A021 RBD it was 4.14 nM; with RaTG13 RBD, 2.88 nM; with WIV1 RBD, 3.89 nM; in the assay with GD-Pangolin RBD, 4.53 nM; in the assay with CS24 RBD, 2.52 nM. Moreover, the Kd was determined as 4.53 nM in the assay with LYRa11 RBD, 3.78 nM with SHC014 RBD, 3.5 nM in the assay with Frankfurt 1 RBD and 3.77 nM with Rs4231 RBD.

REGN10987: in the assay with GD-Pangolin RBD, the equilibrium dissociation constant (Kd) is 1.44 nM.

In the case of REGN10933, the Kd in the assay with GD-Pangolin RBD amounted to 0.64 nM.

In general, Kd refers to a measure of binding affinity in units of concentration.
